Reference: patent publication US20200377608A1 (ADAGENE, published 2020)

Molecular target: T1, Recombinant human CD137 protein (human, UniProt Q07011 24-186)
T1 construct: also called CD137 receptor; 4-1BB
Assay: competition ELISA against biotinylated CD137 ligand on coated human CD137

binding result: binds
B1: αCD137-AB1 (antibody, human IgG4 S228P, kappa, V domains shown)
VH: EVQLVESGGGLVQPGGSLRLSCAASGFSLSTGGVGVGWIRQAPGKGLEWLALIDWADDKYYSPSLKSRLTISRDNSKNTLYLQLNSLRAEDTAVYYCARGGSDTVIGDWFAYWGQGTLVTVSS
VL: DIQLTQSPSSLSASVGDRVTITCRASQSIGSYLAWYQQKPGKAPKLLIYDASNLETGVPSRFSGSGSGTDFTLTISSLQPEDFATYYCQQGYYLWTFGQGTKVEIKR
notes: also called AG10131; Hit ID 5365
